Test results published in the nanobody polyreactivity screen of Harvey et al. (2022).

test: yeast display, Sf9 membrane polyspecificity reagent, FACS + sequencing; frameworks hold sequencing errors
Procedure, shortened: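 Galactose induction of a Saccharomyces cerevisiae BJ5465 synthetic nanobody display library ran 36–48 hours. The cells were then stained for 1 hour at 4 °C with 10% biotinylated, detergent-solubilized Sf9 membrane reagent, pulled down on streptavidin microbeads and FACS-sorted into low and high (top ~1%) gates on expression and reagent-binding fluorescence. Labels for polyreactivity follow the gate of origin.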

Sequence | polyreactivity (PSR sort gate)
QDHHVESGGGLVQAGGSLRLICAASGSTFSWNTMGWYRPAPGKERDLVAAISWSTGRTYYADSVKGRFTISRDNAKNTVYLQMISLKPEDTAVYYCAARRFVTDGTRREYDYWGQGTQVTVSS | high polyreactivity
QDHHVESGGGLVQARGTLRLSCAASGIIYSYYAMGWFRQAPGKEWELVAAITASGGSTYYADSVKGRFTISRDNAKNTVYLQMNSLKPQDTGVSYCAAGSFFLHLIGYSTVSYGRNYWGQGTQVTVAS | high polyreactivity
QDHLVESGGGLVQAGGSLRLSCAASGITFVYYYMGWYRTAPGKERELVAAISSDGSTYYADSVKGRFTISRDNAKNTVYLQMNSLKPEDTAVYYCNAVAIVPYFYVVYDIFDYWGQVTQVTVSS | low polyreactivity
QDHLVESGGGLVQAGGSLRLSCAASGSIFGLNVMGWYRHAPGKERELVASITSGRSTNYADSVKVRFTISRDNAKNTVYLQMNSLKPVVTAVYYCYATRVRGWYVTRYYYWGQGTQVTVSA | high polyreactivity
QDHLVESGGGLVQAGGSLRLSCAASGSIFRRNAMGWYRQAPGKERELVAAIRYSGDRTYYADSVKGRFTISRDNAKNTVYLQMNSLKPEDTAVYYCAAKRSVSYYGYYYWGQGSQVTVSS | high polyreactivity
QDHLVESWGGLIQAGCSLRISCAASGSITVYNAMGWYRQAPWKERELLAAITGGVTTNYADSVKGRFTISRDNAKTTFYLLMNSLKPEDTAVYYCAKSQIPFGLDSPVDYWGQGTQVNVSS | low polyreactivity
QDKLVDSGGGLVQAGGSLLLSCAASGFIFLNNAMGWYRQAPGKQRELVAAITWSGGSTYYADSVKGRFTISRDNAKNTVYLQMNSLKPVDTAVYYCAADGWLYYGVGFYSSRRDYYWGQGTQVTVSS | low polyreactivity
QDPLVESGGGLVQAGGSLRLSCAASGRLFYRNPMGWYRQAPGKERELVAAISSSGGGTYADSVKGRFTISRDNAKNTVYLQMNSLKPEDTAVYYCAAGPFSYSHYGRKFYYWGQGTQVTVSS | high polyreactivity
QDPLVESGGLLVQAGGSLRLSCAASGFTFSRYAMGWYRQAPGKERELVAVIDNSGGTTYYADSVKGRFTISRDNAKNTVYLQMNSLKPEDTAVYYCAAKRIPRYYSASDYWGQGTQVTVSS | low polyreactivity
QDQDVESGGGLVQARGSLPLSCAASGSIFAWYAMGWYRQSPGKERELLAVITSSDGSTHYADSVKGRFTISRDNAKNSVYLQMISLKPEDTAVYYCAAFRSLRESKGYWWEYYSWGQGTQVTVSS | low polyreactivity
QDQHVDSGGGLVQAGGSLRLRCAASGFTIADYAMGWYRQAPGKERELVAAINRSGGRTYYADSVKGRFTISRDYAKNTVYLQMNMLKPEDTAVYYCAAYGITYHNSDSWGQGTQVTVSS | high polyreactivity
QDQHVESGGCLVQEGGSLRLSCAASGRTFSSNVMGWYRQAPGKVRELVASITWSGGTTYYADSVKGRFTISRDNAKNTVYLQMNSLKPEDTAVYYCNAADERSQGWVGYDHWGQCTQVTVSS | low polyreactivity
QDQHVESGGGLVQAGGRLSLICAASAFISVRNAMGWYRQAPGKERELVAAISSGDTTDYADSLKGRFTISRDNAKNTVYLLMNSLKPEDTAVYYCAAVYSGRYYYWGQGTQVTVSS | low polyreactivity
QDQHVESGGGLVQAGGSLRLICAASGINFDYYNMGWYRQAPGKERELVATISSGGTSTFYADSVKGRFTISRDNAKNTVYLQMNSLKPDDSAVYYCAKDRPGWVHRRPSGGFDYWGQGTQVTVSS | low polyreactivity
QDQHVESGGGLVQAGGSLRLICAASGLIFGYYAIGWYRLAPGKERELVAAITSDSSTNYADSVKGRFTISRDNAKNTVYLHMNSLKPVDTAVYYCAADIMTRRGYYYWGHGTQVTVSS | high polyreactivity
QDQHVESGGGLVQAGGSLRLICDASGGIFGTNDMGWYRQAPGKERELVAAITSDSGATYYADSVKGRFTISRDNAKNTVYLQMNSLKPEDTAVYYCAAEDGPWFYRYGYWGQGTQVTVSS | low polyreactivity
QDQHVESGGGLVQAGGSLRLSCAASGFTFDFYAMGWYRQAPGKERELVAAISKNDGTTYYADSVKGRFTISRDNAKNTVYLQMNSLKPEDTGVYYCAAESGYPVYTYVSSGDYWGQGTQVTVSS | low polyreactivity
QDQHVESGGGLVQAGGSLRLSCAASGGNYAGYAMGWYRQAAGKARELVAAISWRGTSTYYADSVKGRFTISRDNAKNTVYLELNSLKPEDTAVYYCAAEAASWWGYGYWGQGTQVTVSS | high polyreactivity
QDQHVESGGGLVQAGGSLRLSCAASGILYNYYAMGWYRQAHGKERELVAAISASGGSTYYADSVKGRFTISRDNAKNTVYLQMYSLKPEDTAVYYCNAAVLYRQYGRGDYLGQGTQVTVSS | low polyreactivity
QDQHVESGGGLVQAGGSLRLSCAASGRISKRNVMGWYRPAPGKERELVACISSTGSTSYADSVKGRFTISRDNAKYTVYLQMNSLNPEDTAVYYCAARGQATYNWGQGTQVTVSS | high polyreactivity
QDQHVESGGGLVQAGGSLRLSCAASGRTFRLYAMGWYRQAPGKERELVAAITRGGRTNYADSVKGRFTISRDNAKNTVYLQMNSLKPEDTAVYYCAARYVERHTDYYYWGQGTQVTVSS | low polyreactivity
QDQHVESGGGLVQAGGSLRLSCAASGRTFSYYTMGWYRQAPGKERELVAAISRRGGNTYYADSVKGRFTISRDNAKNTVYLQMNSLKPADTAVYYCAALSYAKHYDPSGYDYWGQGTQVTVSS | high polyreactivity

Sequence | polyreactivity (PSR sort gate)
QDQHVESGGGLVQAGGSLRLSCAASGSIFWYYAMGWYRQEPGKERELVAAISRSGGSTYYADSVKGRFTISRDNAKNTVYLEMNSLKPEDTAVYYCAAGYSSLRRFGVYYWGQGTQVTVSS | high polyreactivity
QDQHVESGGGLVQAGGSLRLSCAASGSTFHLYAMGWYRQAPGKERELVATITWRTGSTYYADSVKGRFTISRDNAKNTVYLQMNSLKPEDTAVYYCAAYPYRYSWLDYWGQGTQVTVSS | high polyreactivity
QDQHVESGGGLVQAGGSLRLSCAASGSTFRYYAMGWYRQRPGKESEMVAAITRRGGSTYYADSVKGRFTISRDNAKYTVYLQMNSLKQADTAVYYCAAYRIYYSGYGYYYYWGQGTQVTVSS | high polyreactivity
QDQHVESGGGLVQAGGSLRLSCAASGSTFVYYAMGWYRQAPGKERELVAVITWSGGRTYYADSVKGRFTISRDNAKNTVYLQMNSLKPEDTAGYYCAADPLSGYDYWGQGTQVTVSS | low polyreactivity
QDQHVESGGGLVQEGGSLRLSCAASGSTFWPYAMGWSRQAPGKERELVARINSGGNTNYADSVKGLFTISRDNAKNTVYLQMNSLKPEDTAVYYCAVRSLYEPRVYYRCVVGDGNYWGQGTQVTVSS | low polyreactivity
QDQHVESGGGLVQEGGSLRLSCASSSSTFEYYAMGWYRQPPGKERELVATISIDGRTNYADSVKGRFTISRDNAKNTVYLQMNSLKPEDTAVYYCAARPYWRHRYDYWVQGTQVTVSS | low polyreactivity
QDQHVESGGGVVQARGSLRLICDASGFTIQRSAMGWYRQAPGKERELVAAISSGGSTYYADSVKGRFTFSRDNAKNTVYLQMNSLKPEDTAVYYCAARPIPRYYGKFWRVDYWGQGTQVTVSS | high polyreactivity
QDQHVESGRGLVQAGGSLRLSCAASGLIFPRNAMGWYRQAPGKERELVAVISRSGTSTYYADSVKGRFTISRDNAKNTVYLQMNSLKPEDTAVYYCAAYSRRGSSLRGRYGYWGQGTQVTVSS | high polyreactivity
QDQHVESGVGLVQEGGSLPLSCASSAFIIVKYAMGWYRKAPGKERELVAAITSGGSTSYADSVKGRFTISRDNAKNTVYLQMNRLKPEDTAVYYCAASTTAYAYVNYGYWGQGTQVTVSS | low polyreactivity
QDQHVETGGRLVHAGCSLRISCAASGSTFTGYAMGWNRPPPGKERELVAAISSGGSTYYADSVKGRFTISRDNPKNTVYLQMNSLTPEDTAVYDCAAAPRWKASRLYYWGQCTQVTVSS | high polyreactivity
QDQIVESGGGLVQAGGSLRLTCAASGLNIYDNMGWYRQAPGKERELVAAISSSGGSTSYADSVKGRFTISRDNAKNTFYVQMNSLKPEDTAVYYCAADSYPAYLGFVGFDYWGQGTQVTVSS | low polyreactivity
QDQLEESALGLVQAGGSLRLICAASGRTFQYYTMAWYRPAPAKEREFVAAIRDSGGSTYYADSVKGRFTISRDNAKNTVYLQMNSLKPEDTAVYYCNKVPNGPSNYDYWGQGTQVTVSS | high polyreactivity
QDQLEESGGGLRQAGGSLRLTCAASGIIFPYYTKGLYRQATGKEKLVAAISSRGGSTYYADSVKGRFTISRDNAKNTVYLQMTSLKPEDTAVYYCAAKNVYHDDFWGQGTQVTVSS | high polyreactivity
QDQLEESGGGLVQAGGSLRLSCAASGNIFPRNAMGWYRQAAGKERELVAAISASGDNTYYADSVKGRFTISRDNAKNTVYLQMNSLKPEDTAVYYCSAGTFYESIQPYESVAYYYWGQGTQVTVSS | low polyreactivity
QDQLEESGGGLVQAGGSLRLSCAASGSTFLVYAMGWYRQAPGKEREFVAAISWSGGSTFYADSVKGRFTISRDNAKNTVYLQMNSLKPEDTAVYYCAARQAGYSGRKLYYWGQGTQVTVSS | low polyreactivity
QDQLEESGGGLVQAGGSLRLSSAASGGTLYLYDMGWYRQAPGKERELVAAISYNGGSTYADSVKGRFTISRDNAKNTFYLQMNSLNPEDSAVYYCAADRPPRGLGGYWGQGTLVTVSS | low polyreactivity
QDQLEETGGGLVHAGGSLRLSCAASGRTFVVYDMGWYRQAPGKERELVAGIRWRGGSTYYADSVKGRFTISRDNAKNSVYLQMNSLKPVDTAVYYCAADVYLVKYDYWGQGTQVTVSS | low polyreactivity
QDQLGDSGGGLVQAGGSLSLSCAASGFIFYRYAMGWYRQAPGKERELVAAISGRGGSTYYADSVKGRFTISRDNAKNTVYLQMNSLKPEDTAVYYCATKPRSDSYGNYDYWGQGTQVTVSS | high polyreactivity
QDQLGESGGGLVQAGGSLRLSCAASGLTFYFYAMGWYRPAPGKEREFVATISFSGGSTYYADSVKGRFTISRDNAKNTVYIQMNSLKPEDTAVYYCNAESDYYWYPYNYWGQGTQVTVSS | low polyreactivity
QDQLVASGGGLVQAGGSSRLSCAASGRTFWSNAMGWYRQAPGKERELVAVITSSGGRTYYADSVKGRFTISRDNAKNTVYLQMNSLKPEDTAVYYCNVVCSPSLGVRTKYGYWGQGTHVTVSS | high polyreactivity
QDQLVDSGGGFVQAGGSLSLSCAASRRTFLYYAMGWYRQAPGKERELVAAIRRGSSTYYADSVKGRFTISRDNAKNNGFLQLISLIAADTAVYYCAAEFVNGPPYGAYDYWGQGTQVTVSS | high polyreactivity
